Results taken from the supplement of paper PMC9170038.

Test system: MS2 coat protein
Test: apparent KD of MS2 coat protein; designed switch direction (-1 OFF switch, 1 ON switch): -1; higher = weaker reporter binding
Summary of the method: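 Designed RNA switches with common flanks were made on Illumina chips by stalled E. coli RNA polymerase. Titration with SNAP-549-labelled MS2 coat protein doubled from 0.7 or 1.5 nM up to 3 µM. Apparent KD is each design's median over clusters after curve-fitting normalised fluorescence.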

[1] = input ligand: microRNA oligo, concentration not stated
[2] = Eterna round: R95, input ligand: FMN 200 uM
[3] = Eterna round: R95, input ligand: microRNA oligo, concentration not stated
[4] = Eterna round: R95, input ligand: none

| Sequence | apparent KD of MS2 coat protein (input ligand: FMN 200 uM) [nM] | apparent KD of MS2 coat protein [1] [nM] | apparent KD of MS2 coat protein (input ligand: none) [nM] | apparent KD of MS2 coat protein [2] [nM] | apparent KD of MS2 coat protein [3] [nM] | apparent KD of MS2 coat protein [4] [nM] |
| --- | --- | --- | --- | --- | --- | --- |
| UUAAAUAAUGUAGGAUAUGCAAGGCGAACCUAAGCAGAAGGACAUGAGGAUCACCCAUGUAAUGCGGUCUGCGUACAGAUCGCA [JL ENG1 1.01] (Eterna round: R96, puzzle: Exclusion NG 1) | 59.4 | 23.2 | 24.2 | – | – | – |
| CGGGAGGGACAAGCUUUUUGCACGUCUGUUAUUGAUGCUACAUGAGGAUCACCCAUGUUUAAGAUGUGUGAGGAUGG [JR_SV3TOV2_Sub053] (puzzle: Sensor v3, turn-off variant 2) | – | – | – | 26.2 | 57.6 | 31.3 |
| UGCAUGCUAGGAUAUACGGGACAUUAGGGUUCGUCGUGUGGACAUGAGGAUCACCCAUGUAGAAGGAGCGUGCU [Mod3 of JL-ex2-2.15 mat747 mod] (puzzle: Exclusion 2) | – | – | – | – | 78.2 | – |
| UCUUCACAUGAGGAUCACCCAUGUGAGGAUAUGGUUUCGCUGGCCGUAGCCAGUGGAACCAGAAGGCGCGUGAU [Mat - Exclusion 1 - JL Mod - D23] (Eterna round: R97, puzzle: Exclusion 1) | 89.6 | – | 73.5 | – | – | – |
| UACAUGAGGAUCACCCAUGUUUUGUCGUGUAUGGUAUUUAUCUAGGAUAUCAAGUUAUGUAUUUAUGAGAAGGAGAAUAUUAAU [JMF's solution 31] (Eterna round: R96, puzzle: Exclusion NG 3) | 40.4 | 35.3 | 43.2 | – | – | – |
| AACUAGGCAGGAUAUACAUGAGGAUCACCCAUGUGCCAAUACAAAGGGACUAACAGAGGUAGAAGGGCCUAGAA [ChP 13.04.2015 #2] (puzzle: Exclusion 3) | – | – | – | 155 | 36.8 | 34.3 |
| UUUUAACAUGAGGAUCACCCAUGUGAGGAUAUCGAAAUUUAUAUUAAUAUUAUUUUAUCGAGAAGGCACAUUUU [JMF 48] (puzzle: Exclusion 1) | – | – | – | – | 122 | – |
| GUAUAUAGUGUGAGGAUAUGCUGGUCCUUGGAUCAGCAGAAGGCACAUGAGGAUCACCCAUGUAGUUUAUUAUU [Mat - Exclusion 4 - JL Mod - D9] (puzzle: Brourd's mod of Exclusion 4) | – | – | – | – | 24.1 | – |
| AGAGAAUAGUCAGGAUAUGAGAAUAGAUAGAGCUCAGAAGGGACACAUGAGGAUCACCCAUGUGAAGUCUUGAGGCUGCGUGGA [Prohibition 20 - Jieux - Exclusion NG 1] (Eterna round: R96, puzzle: Exclusion NG 1) | – | 11.3 | – | – | – | – |
| UACACUGCAUGAGGAUCAAACAUGAGGAUCACCCAUGUAUAGCAGGCUUUUUGUCCGUCUUAUAAUUAUGUAGUGUA [Electric Eye 17 - Jieux - Sensor, turn-off variant 1] (Eterna round: R97, puzzle: Sensor, turn-off variant 1) | 17.3 | – | 15 | – | – | – |
| CAACUGUCAGGAUAUCGUGCAUACAACGAAAGUUCUAUGUGCGAGAAGGGACAUGAGGAUCACCCAUGUAAACG [Omei Ex4 A27] (Eterna round: R97, puzzle: Exclusion 4) | 199 | – | 60.9 | – | – | – |
| UUUAAUUUUUUUUUUUUACAAGCUUUUUGCUCGUCUUAUACAUGAGGAUCACCCAUGUAGGUGAGAGAUAAAUUAUC [JMF 15] (puzzle: Sensor v3, turn-off variant 2) | – | – | – | 19.6 | 128 | 24.4 |
| UCGCUGCGAGGAUAUACAUGAGGAUCACCCAUGUACGGGUCCGGGUCUUAGUUGAUUGGUAGAAGGCGCAGUGA [JL Laongeedie mod 11] (puzzle: Exclusion 3) | – | – | – | – | 84.7 | – |
| AAAAAGCGAGGAUAUGCAUAAGGACCCGGGCGGGAAGUCGGACAUGAGGAUCACCCAUGUAGAAGGCGCAAAAA [Exclss2-V] (puzzle: Exclusion 2) | – | – | – | 25.5 | 13.2 | 14.4 |
| GCACGGAGUGUAGGAUAUCUGUGCGAUUAGCUCAGAGAAGGACACAUGAGGAUCACCCAUGUGUUCCACGGAAACGAACCGUGC [Eli exng1 - 052] (Eterna round: R96, puzzle: Exclusion NG 1) | 11.8 | 10.2 | 13.4 | – | – | – |
| UGAGACUGAGGAUAUACUGGCCCAUAAAGUGGGUCGUGGGUACAUGAGGAUCACCCAUGUAGAAGGCAGCCUCG [Omei Repeat Sequence v6] (Eterna round: R97, puzzle: Exclusion 2) | 656 | – | 55.4 | – | – | – |
| AUCAGCUCGUGAGGAUAUGCACAUGAGGAUCACCCAUGUAAGAUCAAGCUGCUUCGGCAGCAAGUGCAGAAGGCACGAGCUGAU [ENG2/9-A2] (Eterna round: R96, puzzle: Exclusion NG 2) | 186 | 132 | 182 | – | – | – |

| Sequence | apparent KD of MS2 coat protein (input ligand: FMN 200 uM) [nM] | apparent KD of MS2 coat protein [1] [nM] | apparent KD of MS2 coat protein (input ligand: none) [nM] | apparent KD of MS2 coat protein [2] [nM] | apparent KD of MS2 coat protein [3] [nM] | apparent KD of MS2 coat protein [4] [nM] |
| --- | --- | --- | --- | --- | --- | --- |
| UUUUAGUAAGGAUAUGAUUAGAUCUACGAAAGUAGAUCUAAUCAGAAGGUACAUGAGGAUCACCCAUGUAGAUU [Mod of Brourd 3 - Jieux - Exclusion 4] (Eterna round: R97, puzzle: Exclusion 4) | 24.2 | – | 18.5 | – | – | – |
| UUAUUACAAGCAAGAUCCUACAUGAGGAUCACCCAUGUGCUCGUCUUGUAAGGUACAGUGACGAAAGUCACAGUACC [Sensor 3, v1 - 000] (puzzle: Sensor v3, turn-off variant 1) | – | – | – | 24.7 | 302 | 24.9 |
| UUUUAUUGCAAGGAUAUGCAAAUUAUUAUUAAUGCAGAAGGUGCUACAUGAGGAUCACCCAUGUUUCUGGGUUU [JR_E6_Sub043] (puzzle: Exclusion 6) | – | – | – | – | 110 | – |
| CAUGAUCUUCGGAUCAUGUACAUGAGGAUCACCCAUGUGACGAGUAUAUCCUCAAACAAGCUUUUUGCUCGUCUUAU [Sensor v3 - Turn-off variant 1 - 22] (puzzle: Sensor v3, turn-off variant 1) | – | – | – | 299 | 417 | 327 |
| CAGUACUGAGGAUAUACAUGAGGAUCACCCAUGUGAGAAAUACUAAUGAGGUCGAUUAGUAGAAGGCAGUACUG [Mat - Exclusion 3 - Eli Mod - D32] (Eterna round: R97, puzzle: Exclusion 3) | 255 | – | 19.7 | – | – | – |
| UAGUGCUGAGGAUAUACAUGAGGAUCACCCAUGUGCCUUUAACUUAAAGUGUGCACAAGUAGAAGGCGGUGCAA [Eternabot (L1) Solution 93] (Eterna round: R97, puzzle: Exclusion 3) | 20 | – | 19.5 | – | – | – |
| AGCGAAUAGCUAGGAUAUGAGAAUAGAUAGAGCUCAGAAGGAGCACAUGAGGAUCACCCAUGUGAAGUCUUGAGGCUGCGUGGU [Prohibition 17 - Jieux - Exclusion NG 1] (Eterna round: R96, puzzle: Exclusion NG 1) | 20.8 | 14.7 | 18.8 | – | – | – |
| CCGGAACAUGAGGAUCACCCAUGUCAGGAUAUCCCUAAAUCGUCGAUAGACGAUAAAAGGAGAAGGGACACCGG [Mat - Exclusion 1 - Eli Mod - D26] (Eterna round: R97, puzzle: Exclusion 1) | 19.3 | – | 16.3 | – | – | – |
| AUGAAGUAAGGAUAUUAUCGCGGGCAGAGGCCCAGCUCAUAUGAGAAGGUACAUGAGGAUCACCCAUGUCCUCU [Eternabot (L2) Solution 72] (Eterna round: R97, puzzle: Exclusion 4) | 25.9 | – | 30 | – | – | – |
| CCUCUACAUGAGGAUCACCCAUGUGAGGAUAUCCUGCGAGGAUCAAAAGAUCCUCGUGGGAGAAGGCAUAUGAU [Omei Ex1 A3] (Eterna round: R97, puzzle: Exclusion 1) | 36.5 | – | 26.6 | – | – | – |
| UUAUACAAGCAAAGAUCCCACAUGAGGAUCACCCAUGUGCUCGUCUUAUAAGGAACUGUGACGAAAGUCACGGUUCC [Mat - Sensor, turn-off var - Eli Mod - D100] (Eterna round: R97, puzzle: Sensor, turn-off variant 1) | 36.2 | – | 37.2 | – | – | – |
| CUGGUCCGAGGAUAUAUUAAGUGAUACAUGAGGAUCACCCAUGUUAUUUGAUGGAUGUUAAUAGAAGGCGGACUAG [JL-ex5-3.18] (puzzle: Exclusion 5) | – | – | – | 78.3 | 35.7 | 57.6 |
| UAUUAGCAAGCGAGAUCCCACAUGAGGAUCACCCAUGUGCUCGUCUUAUAAGGUACUGUGACGAAAGUCACGGUACC [Sensor 3, v1 - 95 v5] (Eterna round: R97, puzzle: Sensor, turn-off variant 1) | 16.8 | – | 15.3 | – | – | – |
| GGUUGACAUGAGGAUCACCCAUGUGAGGAUAUGCGAGAGAAAAAAGUGAGGAAGAGAAGCAGAAGGCGCUGUCG [salish99-ex1_r3_014] (puzzle: Exclusion 1) | – | – | – | 68.7 | 45.1 | 106 |
| UAUUAGCAAGCGAGAUCCCACAUGAGGAUCACCCAUGUGCUCGUCUUAUAAGGUACUGUGACGAAAGUCACGGUACC [Sensor 3, v1 - 91] (puzzle: Sensor v3, turn-off variant 1) | – | – | – | 12.6 | 441 | 10.8 |
| AGAUAGUGCUGAGGAUAUCUGAAUAGAAAGAAAAGAGAAGGCGGACAUGAGGAUCACCCAUGUGAGGUCUUGAGACUACAUGGU [Prohibition 37 - Jieux - Exclusion NG 1] (Eterna round: R96, puzzle: Exclusion NG 1) | 393 | 42.9 | 80.4 | – | – | – |
